Experimental data published in the supplement of paper PMC12764529.
± gives the half width of the 95% confidence interval.

What was measured:
[1] = folding stability dG unfold from chymotrypsin proteolysis; higher = more stable
Outline: (§1)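 Designed mini-proteins (under 80 residues, no cysteine) in a PA-tagged cDNA display construct were digested with trypsin and chymotrypsin. Each protease was used at 11 concentrations (threefold dilutions) plus a no-protease condition, followed by sequencing. K50 was inferred by Bayesian fitting of sequencing counts, and unfolding free energy was derived against a sequence-predicted unfolded-state K50 and a shared folded-state K50, per protease or combined. Only designs with AlphaFold2 dimer inter-PAE above 15 were kept.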

[2] = folding stability dG unfold from trypsin proteolysis; higher = more stable
Outline: as §1

[3] = folding stability dG unfold (combined trypsin and chymotrypsin); higher = more stable
Outline: as §1

Q: Which “folding stability dG unfold” value [1] does the source give for “PDNEPPQWYRVWIPIDPEDGKIEVKPGGSTMTIDLPDGRPIEFYVPQGMSPSDIKNWAKGIAKELAEELKNS [r1_25_TrROS]” here?
A: 1.58 ± 0.18 kcal/mol

Q: What about the “folding stability dG unfold” value [2] of the same sequence?
A: 1.54 ± 0.076 kcal/mol

Q: And the “folding stability dG unfold” value [3]?
A: 1.52 ± 0.2 kcal/mol

Q: What does the source list for “SAGATTTTTTTNPADDTTVTTTTTTTGNTSTVTSTSTSGSTSTLTTTTVTFTSPTTTTTTTTTTPVPSSAGG [r19_292_JUSTAS]”?
A: folding stability dG unfold [1]: -0.45 ± 0.22 kcal/mol; folding stability dG unfold [2]: 0.679 ± 0.03 kcal/mol; folding stability dG unfold [3]: 0.264 ± 0.074 kcal/mol

Q: With “SAGGMKLTPEELKGKTIRIRIKVNGKEYEIEAKVVEVDGELYIEVKIINKETKEEKTITIPLDDVEIVSAGG [r13_289_TrROS_Hall]” as the sequence, how does the “folding stability dG unfold” value [1] read?
A: 2.1 ± 0.064 kcal/mol

Q: And the “folding stability dG unfold” value [2]?
A: 2.67 ± 0.072 kcal/mol

Q: And the “folding stability dG unfold” value [3]?
A: 2.39 ± 0.25 kcal/mol

Q: Which results are given for “SAGGSAGGSSVIEVTFSDGSKALFFPGSQKVVVYNPSTKKKIVIPPGVSPETALKAIAEGKPISAGGSAGGS [r12_832_TrMRF]”?
A: folding stability dG unfold [1]: 0.185 ± 0.073 kcal/mol; folding stability dG unfold [2]: 0.91 ± 0.056 kcal/mol; folding stability dG unfold [3]: 0.671 ± 0.13 kcal/mol

Q: Which “folding stability dG unfold” value [1] does the source give for “SMKIKIPVLIKVDPSETIEEVLEKVKEIAEEIAKFLESKGGPVEVKADVEPIPEIDYVIVTVEAYVPEEASA [r9_1161_TrMRF]” here?
A: 1.8 ± 0.082 kcal/mol

Q: And the “folding stability dG unfold” value [2]?
A: 1.53 ± 0.075 kcal/mol

Q: And the “folding stability dG unfold” value [3]?
A: 1.54 ± 0.17 kcal/mol

Q: Which results are given for “SAGGSAGGSEKVEIEREFKLPDPNGKPFRFTVEIEVEPRNDGLKIEITEVEGPWMRDAIKKLLSAGGSAGGS [r12_743_TrROS]”?
A: folding stability dG unfold [1]: 0.922 ± 0.24 kcal/mol; folding stability dG unfold [2]: 0.696 ± 0.14 kcal/mol; folding stability dG unfold [3]: 0.907 ± 0.2 kcal/mol

Q: Which “folding stability dG unfold” value [1] does the source give for “SDPGHKFKMEIVREIYLPGQIRIFVHKMEHPNGNPWVNVMVRNPDGQMEPIAMVPSDDPDAKDEALKLIKSA [r9_1069_TrROS]” here?
A: 0.506 ± 0.14 kcal/mol

Q: What about the “folding stability dG unfold” value [2] of the same sequence?
A: 0.035 ± 0.12 kcal/mol

Q: What about the “folding stability dG unfold” value [3] of the same sequence?
A: 0.391 ± 0.1 kcal/mol

Q: With “SAGMKAYIVSVEKNEDGTETIKLKVYFLDKNGKVVETKEITIKKGETIKITFPNGKTITVPAKDLKLVKSAG [r5_137_TrROS_Hall]” as the sequence, how does the “folding stability dG unfold” value [1] read?
A: 3.703 ± 0.033 kcal/mol

Q: And the “folding stability dG unfold” value [2]?
A: 2.02 ± 0.083 kcal/mol

Q: And the “folding stability dG unfold” value [3]?
A: 3.24 ± 0.082 kcal/mol

Q: With “SPLTAEQIKKLLRELFPNAKIVSIEYDKENKTVTITFEDGLKIEVTVTEDGRVIIRITLPGKEITIEIEVSA [r9_304_TrROS_Hall]” as the sequence, how does the “folding stability dG unfold” value [1] read?
A: 4.03 ± 0.23 kcal/mol

Q: And the “folding stability dG unfold” value [2]?
A: 4.22 ± 0.3 kcal/mol

Q: And the “folding stability dG unfold” value [3]?
A: 4.44 ± 0.22 kcal/mol

Q: What does the source list for “SAGEFEVLEVREVDGRLVVRLALPDKPEVVTIVLERHPDGSVRALIEAEGEAADRIVEALPELDEVVVASAG [r5_933_TrMRF]”?
A: folding stability dG unfold [1]: 2.64 ± 0.11 kcal/mol; folding stability dG unfold [2]: 1.9 ± 0.036 kcal/mol; folding stability dG unfold [3]: 2.46 ± 0.15 kcal/mol

Q: Which “folding stability dG unfold” value [1] does the source give for “SAGGSAIENQFLRITMYHGNKPHTWTFPIKKVDIDPEDGNIEVYFPPEFRELFGGPMRITDIEFPPSAGGSA [r15_710_TrROS]” here?
A: 1.63 ± 0.071 kcal/mol

Q: And the “folding stability dG unfold” value [2]?
A: 1.14 ± 0.019 kcal/mol

Q: And the “folding stability dG unfold” value [3]?
A: 1.46 ± 0.067 kcal/mol

Q: Which “folding stability dG unfold” value [1] does the source give for “SAGGRYYFVRIEIYNPNNGRPFDIMIPFPGMPAEQVKEQVKEIADELAKQHGMDVKVKVEIQPLPPDSAGGS [r8_185_TrROS]” here?
A: 2.06 ± 0.07 kcal/mol

Q: And the “folding stability dG unfold” value [2]?
A: 1.73 ± 0.092 kcal/mol

Q: And the “folding stability dG unfold” value [3]?
A: 1.95 ± 0.17 kcal/mol

Q: For “SAGGNRKFTLIIRIKAPPGDPDKMKEEVKEIANEIADIFRDHGVKVKVKVEYDPDNGEIYVQVEFEVPSAGG [r13_755_TrROS]”, which “folding stability dG unfold” value [1] is on record?
A: 5.12 ± 0.31 kcal/mol

Q: And the “folding stability dG unfold” value [2]?
A: 3.89 ± 0.29 kcal/mol

Q: What about the “folding stability dG unfold” value [3] of the same sequence?
A: 4.78 ± 0.29 kcal/mol

Q: Which results are given for “SMKIYKTKEEAEKAAKETGKKVIVIKKGMSLEELLELLKKLKGLKEGQKVILVIQNEDGETYVIVLEIKPSA [r9_314_TrROS_Hall]”?
A: folding stability dG unfold [1]: 1.43 ± 0.13 kcal/mol; folding stability dG unfold [2]: 1.82 ± 0.099 kcal/mol; folding stability dG unfold [3]: 1.74 ± 0.17 kcal/mol

Q: Which “folding stability dG unfold” value [1] does the source give for “SAGGSAGGSAGGEVIEIELPGKTKEEIEEAIKKLPENYKIEIKKDENGRIRVRIFRKEDLSAGGSAGGSAGG [r7_662_TrROS_Hall]” here?
A: 1.5 ± 0.17 kcal/mol

Q: And the “folding stability dG unfold” value [2]?
A: 1.6 ± 0.15 kcal/mol

Q: What about the “folding stability dG unfold” value [3] of the same sequence?
A: 1.44 ± 0.42 kcal/mol

Q: What does the source list for “SGLTNLRVEAELVPPGVLRVTFTEGGKPVYELTFTVVVPAPPVVEPVLLPNGVPALVVYDPATGKPVVYPSA [r9_343_TrMRF]”?
A: folding stability dG unfold [1]: 3.27 ± 0.11 kcal/mol; folding stability dG unfold [2]: 2.17 ± 0.13 kcal/mol; folding stability dG unfold [3]: 2.86 ± 0.08 kcal/mol

Q: Which “folding stability dG unfold” value [1] does the source give for “SAGMKKKITVKVKVKTEEEAEKLAEELEKELGLKVTVEKNEETGVYTITVEVSPEAVEALKKAGVEIESAGG [r19_306_TrROS_Hall]” here?
A: 1.92 ± 0.083 kcal/mol

Q: And the “folding stability dG unfold” value [2]?
A: 1.93 ± 0.33 kcal/mol

Q: What about the “folding stability dG unfold” value [3] of the same sequence?
A: 1.86 ± 0.28 kcal/mol

Q: With “SAGGSAGGSAGGSAKIDLPFPAEITEIRPRPDGSVEIRLSFPTYTVTAIIPPNGIKIYGSAGGSAGGSAGGS [r4_280_TrMRF]” as the sequence, how does the “folding stability dG unfold” value [1] read?
A: -0.0211 ± 0.11 kcal/mol

Q: What about the “folding stability dG unfold” value [2] of the same sequence?
A: 0.855 ± 0.017 kcal/mol

Q: And the “folding stability dG unfold” value [3]?
A: 0.487 ± 0.065 kcal/mol

Q: Which “folding stability dG unfold” value [1] does the source give for “SEMTAEELAARLAERLAEEHPGEEVTVEIEVEAEVVDEETGETRTVRVTVTLRFRDGKVEVVDVKVEELPSA [r9_361_TrROS_Hall]” here?
A: 4.49 ± 0.066 kcal/mol

Q: And the “folding stability dG unfold” value [2]?
A: 3.43 ± 0.092 kcal/mol

Q: And the “folding stability dG unfold” value [3]?
A: 4.18 ± 0.086 kcal/mol

Q: Which “folding stability dG unfold” value [1] does the source give for “SMIVKSEPVKDPNSDLTTTPVTITLPVREYDPSLGVTRERLVTINGTVITTLLEKHPDGSVISTVDVLPASA [r9_1058_JUSTAS]” here?
A: 0.69 ± 0.039 kcal/mol

Q: And the “folding stability dG unfold” value [2]?
A: -0.177 ± 0.026 kcal/mol

Q: What about the “folding stability dG unfold” value [3] of the same sequence?
A: 0.427 ± 0.049 kcal/mol

Q: Which “folding stability dG unfold” value [1] does the source give for “SAGGMELEKAIEFAKETGKEVEIEIEVEDENGKPFVIRVRVKVKPDPEDPNKYKIEVEVEVFPKEELSAGGS [r16_323_TrMRF]” here?
A: 4.38 ± 0.13 kcal/mol

Q: What about the “folding stability dG unfold” value [2] of the same sequence?
A: 3.61 ± 0.19 kcal/mol

Q: And the “folding stability dG unfold” value [3]?
A: 4.08 ± 0.12 kcal/mol
